# Values quoted from earlier work as cited in publication PMC10530976.
# Biological target: Kv1.2 (UniProt P16389)
# Sequence of UniProt P16389 (P16389 whole entry): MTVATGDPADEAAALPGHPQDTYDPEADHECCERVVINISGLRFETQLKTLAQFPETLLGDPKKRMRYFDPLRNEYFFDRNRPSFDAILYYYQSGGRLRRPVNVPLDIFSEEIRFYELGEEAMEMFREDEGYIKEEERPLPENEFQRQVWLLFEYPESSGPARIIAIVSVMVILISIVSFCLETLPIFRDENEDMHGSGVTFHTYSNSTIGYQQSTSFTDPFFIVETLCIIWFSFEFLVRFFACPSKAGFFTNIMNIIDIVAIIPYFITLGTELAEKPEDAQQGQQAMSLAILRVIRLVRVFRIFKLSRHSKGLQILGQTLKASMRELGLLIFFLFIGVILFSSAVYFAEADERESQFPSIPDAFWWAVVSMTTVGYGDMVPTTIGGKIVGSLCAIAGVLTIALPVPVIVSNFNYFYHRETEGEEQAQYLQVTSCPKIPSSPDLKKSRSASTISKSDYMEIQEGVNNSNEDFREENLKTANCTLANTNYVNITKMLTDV
substance,measurement,value
OSK2 (from UniProt P83244),Kd,5.97 nM
